# From the nanobody polyreactivity screen of Harvey et al. (2022)
# Assay: yeast display, Sf9 membrane polyspecificity reagent, FACS + sequencing; frameworks hold sequencing errors
# In short: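 In a synthetic yeast display library (Saccharomyces cerevisiae BJ5465), nanobody expression was induced with galactose for 36–48 hours. FACS gates were set low and high (top ~1%) using anti-HA fluorescence for expression and streptavidin fluorescence for binding of the Sf9 membrane reagent. Each polyreactivity label is drawn from the gate of origin.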
row,Sequence,polyreactivity (PSR sort gate)
1,QVQLVESGGGLVQAGGSLRLSCAASGGIFNYYVMGWYRQAPGIERELVAAISNGGSPNYADSVKGRFTISRDNAKNPVYLQMNSLKPEDTAVYYCAAHTYSELSWLVVYPYDYWGQGTQVTVSS,low polyreactivity
2,QVQLEESWGGLVQAGGSLRLSCAASGRTFDTYAMGWNRQAPGKERELVAAITSGGSTYYADSVKGRFTISRDNAKNTVYLQMNSLKPEDTAVYYCAVSGQLYAYRYGYWGQGTQVTVSS,low polyreactivity
3,QVQLVESRGGLVQAGGSLRLSYAASGYFFRYNSMGWYRQAPGTERELVAAMSRGGTTYYADSVTGRFTISRDNAMNTVYLQMNSLKPEDTEVYYCAAGRKVQSRRYGYWGQGTQVTVSS,high polyreactivity
4,QVQLVESGGGLVQAGGSLRLSCAASGFILGYNAMGLYRQAPGKERELVAAINGGSGSTYYADSVKGRFTISRDNAKNTVYLQMNSLKPEDTAVYYCAAEVTWAFFYERDYWGQGTQVTVSS,high polyreactivity
5,QVQLVESGGGLVQAGGSLRLSCAASGSIFYTNAMGWYRQAPGKERELVAAIRWSGGRTYYADSVKGRFTISRDNAKNTVYLQMNSLKPEDTAVYYCNKVPRTPIPYKYGYWGQGTQVTVSS,high polyreactivity
6,QVQLVESGGRLVQAGGSLRLSCAASGRTFYRYAMGWYRQAPGKERELVAAITWSGGSTYYADSVKGRFTTSRDNAKNTVYLQMNSLKPEDTAVYYCAATKRRFVKFDYWGQGTQVTVSS,low polyreactivity
7,QVQLVESGGGLVQAGGSLRLSCAASGFTFYTNAMGWYRQAPGKEREFVAAISWSGTGTYYADSVKGRFTISRDNAKNTVYLQMNSLKPEDTAVYYCAARDRWRGGRKFDYWGQGTQVTVSS,high polyreactivity
8,QVQLVESGGGLVQAGGSLRLSCAASGSTFPPYAMGWYRQAPGKERELVAAISWSGSGSTYYADSVKGRFTISRDNAKNTVYLQMNSLKPEDTAVYYCAAGYVRVITPAYYYWGQGTQVTVSS,low polyreactivity
9,QVQLVESGGGLVQAGGSLRLSCAASGFTFFWYAMGWYRQAPGKERELVAGITYRGGSTYYADSVKGRFTISRDNAKNTVYLQMNSLKPEDTAVYYCNADVVTKHISAWWDRYYRRYYYWGQGTQVTVSS,low polyreactivity
10,QVQLVESGGGLVQAGGTLRLSCAASGFIIPGYAMGCYRQAPGKERELVAAISGRGGSTYYADSVKGRFTISRDNAKNTVYLQMNSLKPEDTAVYYCNADWQDDLAGYDVDYWGQGTQVTVSS,low polyreactivity
11,QVQLVESGGGLVQAGGSLRISSAASGRTFATYVMGWYRQAPGKERELVASITRGGSTNYADSVKGRFTISRDNAKNTVYLQMNSLKPEDTAVYYCAASFLATYDYWGLGTQVTVSS,low polyreactivity
12,QVQLVESGGGLVQAGGSLRLSCAASGRIFANYAMGWYRQAPGKERELVAGITTGGSTYYADSVKGRFTISRDNAKNTVYLQMNSLKPVDTAVYYCAVRWRNRLYYYWGQGTQVTVSS,high polyreactivity
13,QVQLVESGGGLVQAGGSLRLSCAASGFIFRRYAMVWYRQAPGKERELVAAISTGGSTYYADSVKGRFTISRDNAKNTVYLQMNSLKPDDTAVFYCNVKRRTYGQYRMYYWGQGTQVTVSS,low polyreactivity
14,QVQLVESGGGLVQAGGSLRLSCAASGRTFALYAMGWYRQAPGTERELVASISWRGGSTYYADSVKGRFTISRDNAKNTVYLQMNSLKPEDTAVYYCAADTWSYGPLNYRLEYWGQGTQVTVSS,low polyreactivity
15,QVQLVESGGGLVQAGGNLRLICDASGSIFLYNTMGWYRHAPGQERELVAAITYSGGSTYYADSVKGRFTISRDNAKNTVYLQMNSLNPEDTAVYYCNARHYSAFYSWGQGTQVTVSS,high polyreactivity
16,QVQLVESGRGLFQAGGSLRLSCAASGSIFYSYAMGWYRQAPGKERELVAAISRSGGSTYYADSVKGRFTISRDNAKNTVYLQMNSLKPEDTAVYYCAAKNTGRYYWGLGTQVTVSS,high polyreactivity
17,QVQLVESGGGLVQAGGSLRLSCAASGSIFAYYAMGWYRQAPGKERELVAAISRRGGSTYYADSVKGRFTISRDNAKNTVYLQMNSLKPEDTAVYYCAADGGGTTSLEYGNDYWGQGTQVTVSS,high polyreactivity
18,QVQLVETGGCLVQAGCSLRLSCAASGIIFYEYAMGRYRQAPGKERELVAAIDWSGGSTYYADSVKGRFTISRDNAKNTVYLQMNRLKPEDSAVYYCAAQWAWVDYFGNWYASTYDYWGQGTQVTVSS,high polyreactivity
19,QVQLVESGGGLVQAGGSLRLSCAASGRNFAWYAMGWYRQAPGKERELVAAISWSSDTTYYADSVKGRFTISRDNAKNTVYLQMNSLKPEDTAVYYCAAVFQGYTRKYYYWGQGTQVTVSS,high polyreactivity
20,QVQLVESGGGLVQAGGSLRLSCAASGFTIYYYAMGWYRQAPGKERELVASITSGGSTYYADSVKGRFTISRDNAKNTVYLQMNSLKPEDTAVYYCAKTRFHSKEGDYWGQGTQVTVSS,low polyreactivity
21,QVQLVESGGGLVQAGGSLRLSCAASGRTFYYNTMGWYSQAPGKERELVATISRIGGSTYYADSVKGRFTISRDNAKNTVYLQMNSLKPEDTAVYYCAAYVAAYPTGYDYWGQGTQVTVSS,high polyreactivity

row,Sequence,polyreactivity (PSR sort gate)
1,QVQLVESGGGLVQAGGSLRLSCAASGFIIVYYAMGWYRQAPGKERELVAGISSGGSTYYADSVKGRFTISRDNAKNTVYLQMNSLKPEDTAVYYCATRYLYRGYSYFAYDYWGQGTQVTVSS,low polyreactivity
2,QVQLVESVGCLVQAGGSLRLSCATSGSIFRYYTMGWYRQPPGKERELVARISSSGSTNYADSVKGRFTISRDNGKNTVYLQMNSLKPEDTAVYYCAARGFSWAGYFYWGQGTQVTVSS,low polyreactivity
3,QVQLVESGGGLVQAGGSLRLSCAASGSIFRFNAMGWYRQAPGKERELVAAITSRTYYADSVKGRFTISRDNAKNTVYLQMNSLKPEDTAVYYCAARVQSKYGYWGQGTQVTVSS,high polyreactivity
4,QVQLVESGGGLVQAGGSLRLSCAASGSIFPAYAMGWYRQAPGKERELVAAITDRCGSTYYADSVKGRFTISRDNANNTVSLQMNSLKPEDTYWGQGTQVTVSS,low polyreactivity
5,QVQLVESGGGLVQAGGSLRLSCAASGSIFFGNAMGWYRQAPGKERELVAAISSRGTSTYYADSVKGRFTISRDNAKNTVYLQMNSLKPEDTAVYYCNKRVRTFRGGPLAGYDYWGQGTQVTVSS,high polyreactivity
6,QVQLVESGGGLVQAGGSLRLSCAASGSTFPRNDMGWYRQAPGKERELVAAISRGGSTNYADSVKGRFTISRDNAKNTVYLQMNSLKPEDTAVYYCAAQIIESAYGMDYWGQGTQVTVSS,low polyreactivity
7,QVQIVESGGGLVQAGGSLRLSFAASGSIFSYNSMGWYRQAPGRERELVAAITPGCTSYYADSVKGLFRISRDNAKNTVYIQMNSLTPEDTAVYYCAADGLSRDTLYPYDYWGQGSQVTVSS,low polyreactivity
8,QVQLVESGGGLVQAGGSLRLSCAASVFTVYGMGWYRQAPGKERELVAAISTGGNTYYADSVKGRFTISRDNAKNTVYLQMNSLKPEDTAVYYCNRRYRYYGLWYGYWGQGTQVTVSS,high polyreactivity
9,QVKLVESVGGLVQAGGSLRLTCAASGIIFPVYAMGRYRQAPGKERQLVSAITYSGDRTYYADSVKGRFTISSDNAKNTVYLQMHSLKPEDTAVYYCNARFGVWPYFYNEDDYWGQGTQVTVSS,low polyreactivity
10,QVQLVESWGGLVQAGGSLRLSCAASGTTFTVYAMGWYRQAPGKERELVAAISWSTGRTYYADSVKGRFTISRDHAKNTVYLQMNSLKPEDTAVYYCAARVSYYRTPAEYGYWGQGTQVTVSS,high polyreactivity
11,QVQQQQSGGGLVQAGGSLSLSCAASGTIFQLTVMGRYRQAPGKERELVASIDYGGNTNYADSVKGRFTISRDNAKNTVYLQMNSLKPEDTEVYYCAASSDTWTTHPFWGQGTQVTVSS,low polyreactivity
12,QVQLVESGGGLVQAGGSLRLSCAASGRIFILYGMGWYRQAPGKERELVAAIRWSGASTYYADSVKGRFTISRDNAKNTVYLQMNSLKPEDTAVYYCAATVGFTPSFWYSSKYDYWGQGTQVTVSS,low polyreactivity
13,QVQLVESGGGLVQAGGSLRLTCAASGRIFSRYAMGWYRQAPGKERELVASITRGGSTYADSVKGRFTISRDNAKNTVYLQMNSLKPEDTAVYYCNATYFTRYRQYDYWGQGTQVTVSS,low polyreactivity
14,QVQLVESGGGLVQAGGSLRLSCAASGRTFGIYAMGWYRQAPGKERELVAAIRWRDGSTYYADSVKGRFTISRDNAKNTVYLQMNSLKPEDTAVYYCAATSRVYVRGSYWKYGYWGQGTQVTVSS,high polyreactivity
15,QVQLVESGGGLVQEGGSLRLSCAASGGTFWLYTMGWYRQAPGKERELVAAITKSGGSTYYADSVKGRFTISRDNAKNTVYLQMNSLKPEDTAVYDCAARYSVYRDGYYWGQGTQVTVSS,high polyreactivity
16,QVQLVESAGGIVQAGGSLRLSCAASESIFETYDMGCYRQAPGTERELVAAITLSGGSTYYADSVKGRFTISRDNAKNTVYLQMNSLKPEDTAVYYCAADDSGVKVWEGDYWGQGTQVTVSS,low polyreactivity
17,QVQLVESGGGLVQAGGSLRLSCAASGSTFQSNAMGWYRQAPGKERELVAAINSGTSTYYADSVKGRFTISRDNAKNTVYLQMNSLKPEDTAVYYCAADGIWGEYYYSELGDYDYWGQGTQVTVSS,low polyreactivity
18,QVQLVESGGGLVQAGGSLRLSCAASGSTFDFYAMGWYRQAPGKERELVARISSGGGRTYYADSVKGRFTISRDNAKNTVYLQMNSLKPEDTAVYYCATDYPWIFGHFLMDYWGQGTQVTVSS,low polyreactivity
19,QVQLLETGGGLVQAGRSHRLSCAASGLTFEDYAMGWYRQAPGKESELVAAITYSGGSTYYADSVKGRFTISRDNAKNSVYLQMMSLKPEDTAVSVCAAVSTLRPSWKRYYYWGQGNQVTVSS,high polyreactivity
20,QVQLVESGGGLVQAGGSLRLSCAASGITFVPYAMGWYRQAPGKEREFVARITWSGGGTYYADSVKGRFTISRDNAKNTVYLQMNSLKPEDTAVYYSNKASLPTYYYVDGSDSWGQGTQVTVSS,low polyreactivity
